Laboratory results as given in paper PMC3141330 (Biochemistry, 2010).
Ends that are not written are not given here.

B1: GST-CHIP fusion (pGST-hCHIP (1-303)) (enzyme, human, UniProt Q9UNE7 1-303, looked up)
chain: MKGKEEKEGGARLGAGGGSPEKSPSAQELKEQGNRLFVGRKYPEAAACYGRAITRNPLVAVYYTNRALCYLKMQQHEQALADCRRALELDGQSVKAHFFLGQCQLEMESYDEAIANLQRAYSLAKEQRLNFGDDIPSALRIAKKKRWNSIEERRIHQESELHSYLSRLIAAERERELEECQRNHEGDEDDSHVRAQQACIEAKHDKYMADMDELFSQVDEKRKKRDIPDYLCGKISFELMREPCITPSGITYDRKDIEEHLQRVGHFDPVTRSPLTQEQLIPNLAMKEVIDAFISENGWVEDY
B2: Carboxyl terminus of Hsc70-interacting protein (CHIP), full-length human, His6-tagged (enzyme, UniProt Q9UNE7 1-303, looked up)
chain: B1 chain
B3: His6-Hsp90β (full-length) (natural protein)
chain: not shown

Legend:
[1] = biological target: B2; experiment: ITC
[2] = biological target: B3; experiment: pull-down
[3] = biological target: His6-Hsp70 (full-length, wild type) (UniProt P0DMV8 1-641); experiment: ITC
His6-Hsp70 (full-length, wild type), sequence (P0DMV8 whole entry): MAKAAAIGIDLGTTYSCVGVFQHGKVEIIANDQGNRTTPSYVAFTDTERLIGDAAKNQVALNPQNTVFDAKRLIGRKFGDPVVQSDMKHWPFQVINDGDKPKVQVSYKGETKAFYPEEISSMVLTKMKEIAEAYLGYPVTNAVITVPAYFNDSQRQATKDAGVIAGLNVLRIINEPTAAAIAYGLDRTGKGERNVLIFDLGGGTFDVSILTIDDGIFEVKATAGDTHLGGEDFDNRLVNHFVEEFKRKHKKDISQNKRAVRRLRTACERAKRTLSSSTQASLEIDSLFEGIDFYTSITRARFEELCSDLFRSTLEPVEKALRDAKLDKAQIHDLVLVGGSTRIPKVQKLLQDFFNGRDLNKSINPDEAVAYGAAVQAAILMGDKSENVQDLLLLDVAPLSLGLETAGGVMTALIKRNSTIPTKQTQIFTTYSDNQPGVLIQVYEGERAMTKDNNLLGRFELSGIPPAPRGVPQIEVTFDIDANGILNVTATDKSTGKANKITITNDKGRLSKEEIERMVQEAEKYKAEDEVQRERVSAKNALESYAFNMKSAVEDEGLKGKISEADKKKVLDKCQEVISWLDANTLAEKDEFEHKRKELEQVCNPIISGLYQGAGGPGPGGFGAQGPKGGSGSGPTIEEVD

[4] = biological target: B2; experiment: SEC

GSSAAWTEEMPPLEGDDDTSRMEEVD-OH [Hsp90 C-terminal peptide ([residues removed]-COO-), ITC]
stoichiometry N [1]: ~0.9 Hsp90 C-terminal peptide per CHIP monomer

GGGAPPSGGASSGPTIEEVD-OH [Hsp70 C-terminal peptide (GGGAPPSGGASSGPTIEEVD-COO-), ITC]
stoichiometry N [1]: ~0.8 C-terminal Hsp70 peptide per CHIP monomer

B1
binding result [2]: binds

B2
Kd [3]: ~1000 nM

B3
stoichiometry N [4]: ~2.1 Hsp90 monomers per CHIP monomer
